Laboratory results reported in US20240376170A1 (BRIGHT PEAK THERAPEUTICS, published 2024).
Bridges are numbered along the chain shown (N, C = ends). Primed or numbered codes have the meaning given here. [ ]: non-standard residue; d: D form. 8x polyethylene glycol‑amino = O-(8x polyethylene glycol-amino)-tyrosine, SITE 45; 9x polyethylene glycol‑azido = O-(9x polyethylene glycol-azido)-tyrosine, SITE 42; Ygp = O-(8x polyethylene glycol-amino)-tyrosine (Tyr, amino-capped PEG8); Yn3 = O-(9x polyethylene glycol-azido)-tyrosine (Tyr, azide-capped PEG9); Ygp″ = O-(8x polyethylene glycol-amino)-tyrosine; Yn3″ = O-(9x polyethylene glycol-azido)-tyrosine; Ygp(6) = Tyr, amino-capped PEG8; Yn3(6) = Tyr, azide-capped PEG9; PEG4′ = 4x polyethylene glycol; hSer = N[C@@H](CCO)C(=O)O; Nle = CCCC[C@H](N)C(=O)O

T1: IL-2Rβγ on HEK-Blue IL-2Rβγ reporter cells (InvivoGen) (UniProt P14784 27-551; P31785 23-369, limits assumed)
T1 sequence (looked up) 1: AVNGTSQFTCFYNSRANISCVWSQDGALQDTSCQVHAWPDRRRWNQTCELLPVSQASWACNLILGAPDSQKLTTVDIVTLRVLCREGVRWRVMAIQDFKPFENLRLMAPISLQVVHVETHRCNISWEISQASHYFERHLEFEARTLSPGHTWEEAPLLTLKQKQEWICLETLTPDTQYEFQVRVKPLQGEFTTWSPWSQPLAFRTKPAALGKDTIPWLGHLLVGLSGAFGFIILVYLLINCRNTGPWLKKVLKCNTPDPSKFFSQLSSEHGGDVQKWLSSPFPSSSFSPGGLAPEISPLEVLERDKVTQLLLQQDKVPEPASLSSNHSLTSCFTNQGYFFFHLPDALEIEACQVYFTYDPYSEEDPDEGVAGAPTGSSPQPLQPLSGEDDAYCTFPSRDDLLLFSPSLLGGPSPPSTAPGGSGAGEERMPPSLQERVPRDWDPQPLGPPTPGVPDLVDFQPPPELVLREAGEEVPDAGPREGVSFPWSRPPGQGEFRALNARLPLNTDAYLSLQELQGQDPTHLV
T1 sequence (looked up) 2: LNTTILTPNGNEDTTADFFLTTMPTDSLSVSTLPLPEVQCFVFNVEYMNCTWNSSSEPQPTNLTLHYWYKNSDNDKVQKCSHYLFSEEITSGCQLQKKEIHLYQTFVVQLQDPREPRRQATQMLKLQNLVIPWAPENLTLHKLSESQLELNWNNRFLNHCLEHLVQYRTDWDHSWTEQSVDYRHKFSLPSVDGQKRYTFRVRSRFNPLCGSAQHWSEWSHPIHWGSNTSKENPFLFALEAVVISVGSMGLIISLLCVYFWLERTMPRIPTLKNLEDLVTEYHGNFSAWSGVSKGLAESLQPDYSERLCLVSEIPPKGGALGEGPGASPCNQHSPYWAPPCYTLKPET


Each binder was assayed against T1, IL-2Rβγ on HEK-Blue IL-2Rβγ reporter … (assay: cell-based or functional assay).

Row | Binder | Average EC50, HEK-Blue IL-2R (CD122+, CD132+) Reporter Assay, intact molecule | Average EC50, HEK-Blue IL-2R (CD122+, CD132+) Reporter Assay, Matriptase cleaved molecule | Average EC50, HEK-Blue IL-2R (CD122+, CD132+) Reporter Assay, MMP2 cleaved molecule | Average EC50, HEK-Blue IL-2R (CD122+, CD132+) Reporter Assay, uPa cleaved molecule
1 | CMP-318 (ligand, lactam N-32; ends not checked) SGRVANLVGAPTSSSTKKTQLQLEHLLLDLQEILNGINNYKNPKLTR[Nle]L[hSer][Yn3]KF[Ygp][Nle]PKKATELKHLQCLEEELKPLEEVL[hSer]LAQSKNFHLRPRDLISNINVIVLELKGSETTF[hSer]CEYADETATIVEFLNRWITFSQSIISTLT | 3.37 nM |  |  | 
2 | CMP-315, matriptase cleaved (ligand, ends and bridges not checked; also: further groups not given here, tested after matriptase cleavage, remaining product not given here) APTSSSTKKTQLQLEHLLLDLQKILNGINNYKNPKLTR[Nle]L[hSer][Yn3]KF[Ygp][Nle]PKKATELKHLQCLEEELKPLEEVL[hSer]LAQSKNFHLRPRDLISNINVIVLELKGSETTF[hSer]CEYADETATIVEFLNRWITFSQSIISTLT |  | 0.0349 nM |  | 
3 | CMP-329, MMP2 cleaved (ligand, ends and bridges not checked; also: after MMP2 cleavage, remnants of the Lys9–Glu23 peptide linker not given here) APTSSSTKKTQLQLEHLLLDLQEILNGINNYKNPKLTR[Nle]L[hSer][Yn3″]KF[Ygp″][Nle]PKKATELKHLQCLEEELKPLEEVL[hSer]LAQSKNFHLRPRDLISNINVIVLELKGSETTF[hSer]CEYADETATIVEFLNRWITFSQSIISTLT |  |  | 0.0702 nM | 
4 | CMP-315, uPa cleaved (ligand, ends and bridges not checked; also: further groups not given here, tested after uPa cleavage, remaining product not given here) APTSSSTKKTQLQLEHLLLDLQKILNGINNYKNPKLTR[Nle]L[hSer][Yn3]KF[Ygp][Nle]PKKATELKHLQCLEEELKPLEEVL[hSer]LAQSKNFHLRPRDLISNINVIVLELKGSETTF[hSer]CEYADETATIVEFLNRWITFSQSIISTLT |  |  |  | 0.0581 nM
5 | CMP-328, matriptase cleaved (ligand, also: matriptase-cleaved, before the cut Lys9-Glu23 side chains bridged by peptide linker, product not given here) APTSSSTKKTQLQLEHLLLDLQEILNGINNYKNPKLTR[Nle]L[hSer][Yn3]KF[Ygp][Nle]PKKATELKHLQCLEEELKPLEEVL[hSer]LAQSKNFHLRPRDLISNINVIVLELKGSETTF[hSer]CEYADETATIVEFLNRWITFSQSIISTLT |  | 0.352 nM |  | 
6 | CMP-330 (ligand, bridge 9-23; not fully specified (bridges)) APTSSSTKKTQLQLEHLLLDLQEILNGINNYKNPKLTR[Nle]L[hSer]Y(9x polyethylene glycol‑azido)KFY(8x polyethylene glycol‑amino)[Nle]PKKATELKHLQCLEEELKPLEEVL[hSer]LAQSKNFHLRPRDLISNINVIVLELKGSETTF[hSer]CEYADETATIVEFLNRWITFSQSIISTLT | 1.73 nM |  |  | 
7 | CMP-316, matriptase cleaved (ligand, ends and bridges not checked; also: further groups not given here, tested after matriptase cleavage, remaining product not given here) APTSSSTKKTQLQLEHLLLDLQKILNGINNYKNPKLTR[Nle]L[hSer][Yn3]KF[Ygp][Nle]PKKATELKHLQCLEEELKPLEEVL[hSer]LAQSKNFHLRPRDLISNINVIVLELKGSETTF[hSer]CEYADETATIVEFLNRWITFSQSIISTLT |  | 0.0828 nM |  | 
8 | CMP-330, MMP2 cleaved (ligand, not fully specified; also: before the cut Lys9 and Glu23 side chains are bridged by a peptide linker, what remains after the cut not given here) APTSSSTKKTQLQLEHLLLDLQEILNGINNYKNPKLTR[Nle]L[hSer]Y(9x polyethylene glycol‑azido)KFY(8x polyethylene glycol‑amino)[Nle]PKKATELKHLQCLEEELKPLEEVL[hSer]LAQSKNFHLRPRDLISNINVIVLELKGSETTF[hSer]CEYADETATIVEFLNRWITFSQSIISTLT |  |  | 0.558 nM | 
9 | CMP-328, uPa cleaved (ligand, also: uPa-cleaved, before the cut Lys9-Glu23 side chains bridged by peptide linker, product not given here) APTSSSTKKTQLQLEHLLLDLQEILNGINNYKNPKLTR[Nle]L[hSer][Yn3]KF[Ygp][Nle]PKKATELKHLQCLEEELKPLEEVL[hSer]LAQSKNFHLRPRDLISNINVIVLELKGSETTF[hSer]CEYADETATIVEFLNRWITFSQSIISTLT |  |  |  | 0.571 nM
10 | CMP-316, uPa cleaved (ligand, ends and bridges not checked; also: further groups not given here, tested after uPa cleavage, remaining product not given here) APTSSSTKKTQLQLEHLLLDLQKILNGINNYKNPKLTR[Nle]L[hSer][Yn3]KF[Ygp][Nle]PKKATELKHLQCLEEELKPLEEVL[hSer]LAQSKNFHLRPRDLISNINVIVLELKGSETTF[hSer]CEYADETATIVEFLNRWITFSQSIISTLT |  |  |  | 0.0884 nM
11 | CMP-329 (ligand, bridge 9-23; not fully specified (bridges); ends not checked) APTSSSTKKTQLQLEHLLLDLQEILNGINNYKNPKLTR[Nle]L[hSer][Yn3″]KF[Ygp″][Nle]PKKATELKHLQCLEEELKPLEEVL[hSer]LAQSKNFHLRPRDLISNINVIVLELKGSETTF[hSer]CEYADETATIVEFLNRWITFSQSIISTLT | 1.7 nM |  |  | 
12 | CMP-316, MMP2 cleaved (ligand, ends and bridges not checked; also: further groups not given here, tested after MMP2 cleavage, remaining product not given here) APTSSSTKKTQLQLEHLLLDLQKILNGINNYKNPKLTR[Nle]L[hSer][Yn3]KF[Ygp][Nle]PKKATELKHLQCLEEELKPLEEVL[hSer]LAQSKNFHLRPRDLISNINVIVLELKGSETTF[hSer]CEYADETATIVEFLNRWITFSQSIISTLT |  |  | 0.0963 nM | 
13 | CMP-316 (ligand, ends and bridges not checked; also: further groups not given here) APTSSSTKKTQLQLEHLLLDLQKILNGINNYKNPKLTR[Nle]L[hSer][Yn3]KF[Ygp][Nle]PKKATELKHLQCLEEELKPLEEVL[hSer]LAQSKNFHLRPRDLISNINVIVLELKGSETTF[hSer]CEYADETATIVEFLNRWITFSQSIISTLT | 0.0968 nM |  |  | 
14 | CMP-320 (ligand, lactam N-34) SGRVAPQPLVDAPTSSSTKKTQLQLEHLLLDLQEILNGINNYKNPKLTR[Nle]L[hSer][Yn3(6)]KF[Ygp(6)][Nle]PKKATELKHLQCLEEELKPLEEVL[hSer]LAQSKNFHLRPRDLISNINVIVLELKGSETTF[hSer]CEYADETATIVEFLNRWITFSQSIISTLT | 0.775 nM |  |  | 
15 | CMP-321 (ligand, lactam N-32) SGRVQPLVDAPTSSSTKKTQLQLEHLLLDLQEILNGINNYKNPKLTR[Nle]L[hSer][Yn3(6)]KF[Ygp(6)][Nle]PKKATELKHLQCLEEELKPLEEVL[hSer]LAQSKNFHLRPRDLISNINVIVLELKGSETTF[hSer]CEYADETATIVEFLNRWITFSQSIISTLT | 4.2 nM |  |  | 
16 | CMP-317 (ligand, bridge N-31; not fully specified (bridges); ends not checked) GSGSGSG[PEG4′]APTSSSTKKTQLQLEHLLLDLQEILNGINNYKNPKLTR[Nle]L[hSer][Yn3]KF[Ygp][Nle]PKKATELKHLQCLEEELKPLEEVL[hSer]LAQSKNFHLRPRDLISNINVIVLELKGSETTF[hSer]CEYADETATIVEFLNRWITFSQSIISTLT | 2.24 nM |  |  | 
